In patent US20210253718A1 (MODMAB THERAPEUTICS, published 2021):

T1: FZD3 cysteine-rich domain (CRD), MYC-tagged and GPI-anchored on CHO cells (human, UniProt Q9NPG1 24-150, GPI anchor)
T1 construct: domain: cysteine-rich domain (CRD); also called FZD3 CRD; CHO-myc-FZDGPI; not shown: MYC tag and GPI anchor signal
T1 sequence (looked up): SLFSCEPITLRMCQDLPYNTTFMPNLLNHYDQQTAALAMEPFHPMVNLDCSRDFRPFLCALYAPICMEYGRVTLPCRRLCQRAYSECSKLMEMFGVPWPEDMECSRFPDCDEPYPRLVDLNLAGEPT

T2: FZD5 cysteine-rich domain (CRD), MYC-tagged and GPI-anchored on CHO cells (human, UniProt Q13467 29-156, GPI anchor)
T2 construct: also called FZD5 CRD; CHO-myc-FZDGPI; not shown: MYC tag and GPI anchor signal
T2 sequence: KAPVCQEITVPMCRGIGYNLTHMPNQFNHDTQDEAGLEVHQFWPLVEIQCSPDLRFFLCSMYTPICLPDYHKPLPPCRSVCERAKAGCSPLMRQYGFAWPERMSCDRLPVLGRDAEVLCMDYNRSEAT

T3: FZD6 cysteine-rich domain (CRD), MYC-tagged and GPI-anchored on CHO cells (human, UniProt O60353 20-146, GPI anchor)
T3 construct: also called FZD6 CRD; CHO-myc-FZDGPI; not shown: MYC tag and GPI anchor signal
T3 sequence: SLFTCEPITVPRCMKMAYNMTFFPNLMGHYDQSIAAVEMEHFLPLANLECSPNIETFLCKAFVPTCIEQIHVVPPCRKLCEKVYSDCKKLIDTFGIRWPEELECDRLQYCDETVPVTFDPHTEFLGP

T4: FZD8 cysteine-rich domain (CRD), MYC-tagged and GPI-anchored on CHO cells (human, UniProt Q498S8 31-155 (rat entry), GPI anchor)
T4 construct: also called FZD8 CRD; CHO-myc-FZDGPI; not shown: MYC tag and GPI anchor signal
T4 sequence: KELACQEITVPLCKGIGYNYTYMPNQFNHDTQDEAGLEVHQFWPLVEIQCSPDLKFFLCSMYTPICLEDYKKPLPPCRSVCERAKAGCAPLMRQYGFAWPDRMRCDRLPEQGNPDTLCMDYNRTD

T5: FZD9 cysteine-rich domain (CRD), MYC-tagged and GPI-anchored on CHO cells (human, UniProt O00144 35-161, GPI anchor)
T5 construct: also called FZD9 CRD; CHO-myc-FZDGPI; not shown: MYC tag and GPI anchor signal
T5 sequence: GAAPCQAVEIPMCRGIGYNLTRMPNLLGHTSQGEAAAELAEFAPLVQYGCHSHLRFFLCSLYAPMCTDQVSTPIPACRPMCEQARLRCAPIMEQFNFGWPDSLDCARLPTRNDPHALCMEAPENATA

T6: FZD10 cysteine-rich domain (CRD), MYC-tagged and GPI-anchored on CHO cells (human, UniProt Q9ULW2 30-156, GPI anchor)
T6 construct: also called FZD10 CRD; CHO-myc-FZDGPI; not shown: MYC tag and GPI anchor signal
T6 sequence: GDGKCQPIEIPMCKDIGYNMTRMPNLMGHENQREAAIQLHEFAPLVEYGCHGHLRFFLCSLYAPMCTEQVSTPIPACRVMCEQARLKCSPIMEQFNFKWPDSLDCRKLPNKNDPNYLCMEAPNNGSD

T7: FZD4 cysteine-rich domain (CRD), MYC-tagged and GPI-anchored on CHO cells (human, UniProt Q9ULV1 42-167, GPI anchor)
T7 construct: also called FZD4 CRD; CHO-myc-FZDGPI; not shown: MYC tag and GPI anchor signal
T7 sequence: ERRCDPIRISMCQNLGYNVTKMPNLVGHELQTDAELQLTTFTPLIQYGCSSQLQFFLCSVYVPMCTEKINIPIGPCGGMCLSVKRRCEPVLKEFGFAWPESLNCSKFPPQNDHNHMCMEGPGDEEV


Legend:
[1] = target: FZD1 cysteine-rich domain (CRD), MYC-tagged and GPI-anchored on CHO cells (human); assay: flow cytometry, CHO-CRD cells;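 also: flow cytometry of Fab binding to CHO cells overexpressing a Frizzled CRD, with binding defined as median fluorescence over twice that of CHO cells lacking any Frizzled CRD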
Experimental: (§1) Binding was measured via flow cytometry analysis of CHO cells overexpressing CRD of FZD1, FZD2, FZD3, FZD4, FZD5, FZD6, FZD7, FZD8, FZD9 or FZD10. Median fluorescence values are shown.

[2] = target: FZD2 cysteine-rich domain (CRD), MYC-tagged and GPI-anchored on CHO cells (human, UniProt Q14332 35-161); assay: flow cytometry, CHO-CRD cells;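 also: flow cytometry of Fab binding to CHO cells overexpressing a Frizzled CRD, with binding defined as median fluorescence over twice that of CHO cells lacking any Frizzled CRD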
Experimental: as §1

[3] = target: T1, FZD3 cysteine-rich domain (CRD), …; assay: flow cytometry, CHO-CRD cells;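 also: flow cytometry of Fab binding to CHO cells overexpressing a Frizzled CRD, with binding defined as median fluorescence over twice that of CHO cells lacking any Frizzled CRD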
Experimental: as §1

[4] = target: T2, FZD5 cysteine-rich domain (CRD), …; assay: flow cytometry, CHO-CRD cells;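 also: flow cytometry of Fab binding to CHO cells overexpressing a Frizzled CRD, with binding defined as median fluorescence over twice that of CHO cells lacking any Frizzled CRD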
Experimental: as §1

[5] = target: T3, FZD6 cysteine-rich domain (CRD), …; assay: flow cytometry, CHO-CRD cells
Experimental: as §1

[6] = target: FZD7 cysteine-rich domain (CRD), MYC-tagged and GPI-anchored on CHO cells (human, UniProt O75084 45-169); assay: flow cytometry, CHO-CRD cells
Experimental: as §1

[7] = target: T4, FZD8 cysteine-rich domain (CRD), …; assay: flow cytometry, CHO-CRD cells
Experimental: as §1

[8] = target: T5, FZD9 cysteine-rich domain (CRD), …; assay: flow cytometry, CHO-CRD cells
Experimental: as §1

[9] = target: T6, FZD10 cysteine-rich domain (CRD), …; assay: flow cytometry, CHO-CRD cells
Experimental: as §1

[10] = target: T1, FZD3 cysteine-rich domain (CRD), …; assay: immunofluorescence, CHO-CRD cells
[11] = target: T3, FZD6 cysteine-rich domain (CRD), …; assay: immunofluorescence, CHO-CRD cells
[12] = target: T5, FZD9 cysteine-rich domain (CRD), …; assay: immunofluorescence, CHO-CRD cells
[13] = target: T6, FZD10 cysteine-rich domain (CRD), …; assay: immunofluorescence, CHO-CRD cells
[14] = target: T7, FZD4 cysteine-rich domain (CRD), …; assay: flow cytometry, CHO-CRD cells
Experimental: as §1

[15] = target: T7, FZD4 cysteine-rich domain (CRD), …; assay: immunofluorescence, CHO-CRD cells

Binder	median fluorescence [1]	median fluorescence [2]	median fluorescence [3]	median fluorescence [4]	median fluorescence [5]	median fluorescence [6]	median fluorescence [7]	median fluorescence [8]	median fluorescence [9]	binding result [10]	binding result [11]	binding result [12]	binding result [13]	median fluorescence [14]	binding result [15]
Fab-2904 (Fab, V domains shown, Fab; also called Fv-2904) VH: EVQLVESGGGLVQPGGSLRLSCAASGFNIYSYSMHWVRQAPGKGLEWVAYISSSYGYTSYADSVKGRFTISADTSKNTAYLQMNSLRAEDTAVYYCARSWYAWAMDYWGQGTLVTVSS VL: DIQMTQSPSSLSASVGDRVTITCRASQSVSSAVAWYQQKPGKAPKLLIYSASSLYSGVPSRFSGSRSGTDFTLTISSLQPEDFATYYCQQSSYSLITFGQGTKVEIK	15.5	12	4.14	29.7	3.59	42.9	10.1	3.37	3.43	no binding	no binding	no binding	no binding	–	–
Fab-2907 (Fab, V domains shown, Fab; also called Fv-2907) VH: EVQLVESGGGLVQPGGSLRLSCAASGFNIYSSYMHWVRQAPGKGLEWVASISSYSGSTYYADSVKGRFTISADTSKNTAYLQMNSLRAEDTAVYYCARSSWGAYIVSYGFDYWGQGTLVTVSS VL: DIQMTQSPSSLSASVGDRVTITCRASQSVSSAVAWYQQKPGKAPKLLIYSASSLYSGVPSRFSGSRSGTDFTLTISSLQPEDFATYYCQQVGYWWGLITFGQGTKVEIK	–	–	3.79	–	3.06	–	–	2.86	2.76	no binding	no binding	no binding	no binding	3.96	no binding
Fab-2899 (Fab, V domains shown, Fab; also called Fv-2899) VH: EVQLVESGGGLVQPGGSLRLSCAASGFNLYYYYMHWVRQAPGKGLEWVASIYPSSGSTSYADSVKGRFTISADTSKNTAYLQMNSLRAEDTAVYYCARGALDYWGQGTLVTVSS VL: DIQMTQSPSSLSASVGDRVTITCRASQSVSSAVAWYQQKPGKAPKLLIYSASSLYSGVPSRFSGSRSGTDFTLTISSLQPEDFATYYCQQWYSSYGLITFGQGTKVEIK	19.5	20.7	7.91	33.7	4.37	54.2	12.8	4.7	5	no binding	no binding	no binding	no binding	–	–
Fab-2912 (Fab, V domains shown, Fab; also called Fv-2912) VH: EVQLVESGGGLVQPGGSLRLSCAASGFNISYSYIHWVRQAPGKGLEWVASISSSSGYTSYADSVKGRFTISADTSKNTAYLQMNSLRAEDTAVYYCARTVRGSKKPYFSGWAMDYWGQGTLVTVSS VL: DIQMTQSPSSLSASVGDRVTITCRASQSVSSAVAWYQQKPGKAPKLLIYSASSLYSGVPSRFSGSRSGTDFTLTISSLQPEDFATYYCQQFYFPYLITFGQGTKVEIK	41	19.8	4.61	32.2	4.1	56.7	7.57	4.45	3.82	no binding	no binding	no binding	no binding	47	–

Further lines, results first:

median fluorescence [1]	median fluorescence [2]	median fluorescence [3]	median fluorescence [4]	median fluorescence [5]	median fluorescence [6]	median fluorescence [7]	median fluorescence [8]	median fluorescence [9]	binding result [10]	binding result [11]	binding result [12]	binding result [13]	median fluorescence [14]	binding result [15]	Binder
14.5	–	4.1	34.9	4.1	8.74	26.7	143	21.1	no binding	no binding	–	–	46.4	–	Fab-2933 (Fab, V domains shown, Fab; also called Fv-2933) VH: EVQLVESGGGLVQPGGSLRLSCAASGFNLYSSYMHWVRQAPGKGLEWVASIYSSYGYTSYADSVKGRFTISADTSKNTAYLQMNSLRAEDTAVYYCARTVRGSKKPYFSGWAMDYWGQGTLVTVSS VL: DIQMTQSPSSLSASVGDRVTITCRASQSVSSAVAWYQQKPGKAPKLLIYSASSLYSGVPSRFSGSRSGTDFTLTISSLQPEDFATYYCQQFWWYASWLFTFGQGTKVEIK
–	–	3.92	37.5	3.05	–	–	3.31	4.53	no binding	no binding	no binding	no binding	4.53	no binding	Fab-2925 (Fab, V domains shown, Fab; also called Fv-2925) VH: EVQLVESGGGLVQPGGSLRLSCAASGFNLSYSSMHWVRQAPGKGLEWVASIYPSYGSTYYADSVKGRFTISADTSKNTAYLQMNSLRAEDTAVYYCARYGYFGLDYWGQGTLVTVSS VL: DIQMTQSPSSLSASVGDRVTITCRASQSVSSAVAWYQQKPGKAPKLLIYSASSLYSGVPSRFSGSRSGTDFTLTISSLQPEDFATYYCQQAWVYASLFTFGQGTKVEIK
30.1	–	6.26	33.1	3.79	22.2	13.8	4.87	4.37	no binding	no binding	no binding	no binding	–	–	Fab-2930 (Fab, V domains shown, Fab; also called Fv-2930) VH: EVQLVESGGGLVQPGGSLRLSCAASGFNLSYYYIHWVRQAPGKGLEWVASIYPYSGSTSYADSVKGRFTISADTSKNTAYLQMNSLRAEDTAVYYCARGALDYWGQGTLVTVSS VL: DIQMTQSPSSLSASVGDRVTITCRASQSVSSAVAWYQQKPGKAPKLLIYSASSLYSGVPSRFSGSRSGTDFTLTISSLQPEDFATYYCQQWYGPYLITFGQGTKVEIK
